In patent publication US20140120109A1 (Regeneron, published 2014):

T1: Fhm, hTL1A(Q167R), soluble, E. coli-expressed, residues 72-251 of SEQ ID NO:246 (human, UniProt O95150 72-251)
T1 construct: with or without N-terminal Met
T1 chain: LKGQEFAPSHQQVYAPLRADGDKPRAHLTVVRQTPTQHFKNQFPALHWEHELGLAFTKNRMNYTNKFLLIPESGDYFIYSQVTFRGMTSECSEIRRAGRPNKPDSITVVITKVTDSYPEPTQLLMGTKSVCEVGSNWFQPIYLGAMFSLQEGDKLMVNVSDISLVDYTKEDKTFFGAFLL

T2: human DR3, full-length, expressed on HEK293 NFkB-luciferase reporter cells (human, UniProt Q93038 25-417)
T2 sequence: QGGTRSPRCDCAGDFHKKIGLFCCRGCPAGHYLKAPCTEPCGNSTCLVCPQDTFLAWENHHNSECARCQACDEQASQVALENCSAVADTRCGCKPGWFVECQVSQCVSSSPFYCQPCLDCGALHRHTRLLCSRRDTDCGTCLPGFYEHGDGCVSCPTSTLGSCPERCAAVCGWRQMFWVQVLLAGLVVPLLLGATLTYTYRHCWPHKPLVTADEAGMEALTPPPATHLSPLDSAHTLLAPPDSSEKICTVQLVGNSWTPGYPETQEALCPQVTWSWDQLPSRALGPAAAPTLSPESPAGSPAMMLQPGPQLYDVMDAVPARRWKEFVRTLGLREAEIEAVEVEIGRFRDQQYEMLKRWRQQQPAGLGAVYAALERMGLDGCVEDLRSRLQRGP

B1: mouse TL1A, soluble, E. coli-expressed, residues 76-252 of SEQ ID NO:250 (ligand)
chain: ITEERSEPSPQQVYSPPRGKPRAHLTIKKQTPAPHLKNQLSALHWEHDLGMAFTKNGMKYINKSLVIPESGDYFIYSQITFRGTTSVCGDISRGRRPNKPDSITMVITKVADSYPEPARLLTGSKSVCEISNNWFQSLYLGATFSLEEGDRLMVNVSDISLVDYTKEDKTFFGAFLL
B2: cynomolgus monkey TL1A, soluble, E. coli-expressed, residues 72-251 of SEQ ID NO:248 (ligand)
chain: LKGQEFAPSHQQVYAPLRADGDKPRAHLTVVRQTPTQHLKNQFPALHWEHELGLAFTKNRMNYTNKFLLIPESGDYFVYSQVTFRGMTSECSEIRQAGRPNKPDSITVVITKVTDSYPEPTQLLMGTKSVCEVGSNWFQPIYLGAMFSLQEGDKLMVNVSDISLVDYTKEDKTFFGAFLL

Key:
[1] = target: B2; assay: SPR 37C, mAb captured
Procedure: (§1) Measurements were conducted on a T100 BIACORE™ instrument. […] Kinetic association (kₐ) and dissociation (kd) rate constants were determined by fitting the data to a 1:1 binding model using BIAevaluation 4.1 curve fitting software (BIAcore Life Sciences). Molar concentrations of TL1A/Fhm used in the data fitting assumed a monomeric state for TL1A in solution. Binding dissociation equilibrium constants (KD) and dissociative half-lives (t_{1/2}) were calculated from the kinetic rate constants as: KD (M)=kd/kₐ; and t_{1/2} (min)=[In2/(60*kd)].

[2] = target: T1, Fhm, hTL1A(Q167R), soluble, E. …; assay: SPR 25C, mAb captured
Procedure: as §1

[3] = target: B2; assay: SPR 25C, mAb captured
Procedure: as §1

[4] = target: B1; assay: SPR 25C, steady state
Procedure: as §1, with “Binding dissociation equilibrium constants (KD) and dissociative half-lives (t_{1/2}) were calculated from the kinetic rate constants as: KD (M)=kd/kₐ; and t_{1/2} (min)=[In2/(60*kd)].” left out

[5] = target: T2, human DR3, full-length, expressed on …; assay: cell-based or functional assay

Row | EC50, NFkB-luciferase reporter [5] | Binder | other results
1 | – | H2M1704N (antibody, V domains shown, chimeric hybridoma antibody: human variable regions, mouse constant regions (mouse Fc)) VH: EVQLVESGGGLVQPGGSLRLSCAVSGFTFSSYWMSWVRQAPGKGLEWVANIKEDGSEKNYVDSVKGRFTLSSDNAKNSLYLQMNSLRAEDTAVYYCAREDYDSYYKYGMDVWGQGTAVIVSS VL: not shown | Kd [1]: 0.751 nM; t1/2 [1]: 16 min; Kd [2]: 0.282 nM; t1/2 [2]: 52 min; Kd [3]: 0.285 nM; t1/2 [3]: 57 min; Kd [4]: 127 nM
2 | 0.01 nM | B1 | –
3 | 0.06 nM | rat TL1A, soluble, CHO-expressed, residues 76-252 of SEQ ID NO:258 with N-terminal His6-tag (ligand) HHHHHHVTEERSAPSAQPVYTPSRDKPKAHLTIMRQTPVPHLKNELAALHWENNLGMAFTKNRMNYTNKFLVIPESGDYFIYSQITFRGTTSECGDISRVRRPKKPDSITVVITKVADSYPEPAHLLTGTKSVCEISSNWFQPIYLGAMFSLEEGDRLMVNVSDISLVDYTKEDKTFFGAFLI | –
4 | 0.08 nM | mouse TL1A, soluble, CHO-expressed, residues 76-252 of SEQ ID NO:250 with N-terminal His6-tag (ligand) HHHHHHITEERSEPSPQQVYSPPRGKPRAHLTIKKQTPAPHLKNQLSALHWEHDLGMAFTKNGMKYINKSLVIPESGDYFIYSQITFRGTTSVCGDISRGRRPNKPDSITMVITKVADSYPEPARLLTGSKSVCEISNNWFQSLYLGATFSLEEGDRLMVNVSDISLVDYTKEDKTFFGAFLL | –
5 | 0.63 nM | human TL1A, soluble, CHO-expressed, residues 72-251 of SEQ ID NO:244 with N-terminal His6-tag (ligand) HHHHHHLKGQEFAPSHQQVYAPLRADGDKPRAHLTVVRQTPTQHFKNQFPALHWEHELGLAFTKNRMNYTNKFLLIPESGDYFIYSQVTFRGMTSECSEIRQAGRPNKPDSITVVITKVTDSYPEPTQLLMGTKSVCEVGSNWFQPIYLGAMFSLQEGDKLMVNVSDISLVDYTKEDKTFFGAFLL | –
6 | 0.32 nM | Fhm, hTL1A(Q167R), soluble, CHO-expressed, residues 72-251 of SEQ ID NO:246 (ligand) HHHHHHLKGQEFAPSHQQVYAPLRADGDKPRAHLTVVRQTPTQHFKNQFPALHWEHELGLAFTKNRMNYTNKFLLIPESGDYFIYSQVTFRGMTSECSEIRRAGRPNKPDSITVVITKVTDSYPEPTQLLMGTKSVCEVGSNWFQPIYLGAMFSLQEGDKLMVNVSDISLVDYTKEDKTFFGAFLL | –
7 | 0.86 nM | cynomolgus monkey TL1A, soluble, CHO-expressed, residues 72-251 of SEQ ID NO:248 with N-terminal His6-tag (ligand) HHHHHHLKGQEFAPSHQQVYAPLRADGDKPRAHLTVVRQTPTQHLKNQFPALHWEHELGLAFTKNRMNYTNKFLLIPESGDYFVYSQVTFRGMTSECSEIRQAGRPNKPDSITVVITKVTDSYPEPTQLLMGTKSVCEVGSNWFQPIYLGAMFSLQEGDKLMVNVSDISLVDYTKEDKTFFGAFLL | –
8 | 0.12 nM | human TL1A, soluble, E. coli-expressed, residues 72-251 of SEQ ID NO:244 (ligand) LKGQEFAPSHQQVYAPLRADGDKPRAHLTVVRQTPTQHFKNQFPALHWEHELGLAFTKNRMNYTNKFLLIPESGDYFIYSQVTFRGMTSECSEIRQAGRPNKPDSITVVITKVTDSYPEPTQLLMGTKSVCEVGSNWFQPIYLGAMFSLQEGDKLMVNVSDISLVDYTKEDKTFFGAFLL | –
9 | 2.02 nM | B2 | –
